Test results: patent US20180133295A1 (AMAL THERAPEUTICS, published 2018)

What was measured:
human TLR2 = target: T1, human TLR2 (human, UniProt O60603 21-784); experiment: HEK-Blue hTLR2 cells, NF-κB/AP1 reporter and IL-8 ELISA; binding inferred from activation
T1 construct: whole, on cells; Expressed on the HEK-Blue hTLR2 reporter cell line; also called hTLR2; Toll-like receptor 2

human TLR4 = target: T2, human TLR4 (human, UniProt O00206 24-839); experiment: HEK-hTLR4 cells, IL-8 ELISA; binding inferred from activation
T2 construct: whole, on cells; also called hTLR4; Toll-like receptor 4
T2 sequence (O00206 24-839): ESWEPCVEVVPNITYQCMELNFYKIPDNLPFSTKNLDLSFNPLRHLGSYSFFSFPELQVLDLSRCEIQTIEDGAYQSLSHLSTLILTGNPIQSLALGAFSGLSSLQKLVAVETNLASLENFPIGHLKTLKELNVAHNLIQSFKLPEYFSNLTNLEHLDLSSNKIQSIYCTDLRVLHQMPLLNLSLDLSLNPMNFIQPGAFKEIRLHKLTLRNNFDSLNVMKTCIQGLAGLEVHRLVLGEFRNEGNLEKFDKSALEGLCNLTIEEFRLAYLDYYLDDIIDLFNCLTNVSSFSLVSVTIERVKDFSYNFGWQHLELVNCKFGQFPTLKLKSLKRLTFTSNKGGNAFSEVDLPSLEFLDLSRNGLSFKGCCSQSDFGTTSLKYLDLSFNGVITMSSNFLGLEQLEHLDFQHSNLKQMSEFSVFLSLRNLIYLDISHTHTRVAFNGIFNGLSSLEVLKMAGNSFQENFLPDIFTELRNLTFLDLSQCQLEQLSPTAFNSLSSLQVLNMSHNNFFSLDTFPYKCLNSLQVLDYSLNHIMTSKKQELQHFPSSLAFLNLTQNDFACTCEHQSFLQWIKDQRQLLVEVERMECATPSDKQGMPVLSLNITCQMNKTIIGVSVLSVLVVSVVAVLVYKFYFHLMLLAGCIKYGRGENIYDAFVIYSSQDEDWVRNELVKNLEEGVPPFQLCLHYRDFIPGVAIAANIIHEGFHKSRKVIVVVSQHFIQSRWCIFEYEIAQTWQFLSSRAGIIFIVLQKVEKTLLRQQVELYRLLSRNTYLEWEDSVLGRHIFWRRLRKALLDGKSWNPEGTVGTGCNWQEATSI

T1 sequence (O60603 21-784): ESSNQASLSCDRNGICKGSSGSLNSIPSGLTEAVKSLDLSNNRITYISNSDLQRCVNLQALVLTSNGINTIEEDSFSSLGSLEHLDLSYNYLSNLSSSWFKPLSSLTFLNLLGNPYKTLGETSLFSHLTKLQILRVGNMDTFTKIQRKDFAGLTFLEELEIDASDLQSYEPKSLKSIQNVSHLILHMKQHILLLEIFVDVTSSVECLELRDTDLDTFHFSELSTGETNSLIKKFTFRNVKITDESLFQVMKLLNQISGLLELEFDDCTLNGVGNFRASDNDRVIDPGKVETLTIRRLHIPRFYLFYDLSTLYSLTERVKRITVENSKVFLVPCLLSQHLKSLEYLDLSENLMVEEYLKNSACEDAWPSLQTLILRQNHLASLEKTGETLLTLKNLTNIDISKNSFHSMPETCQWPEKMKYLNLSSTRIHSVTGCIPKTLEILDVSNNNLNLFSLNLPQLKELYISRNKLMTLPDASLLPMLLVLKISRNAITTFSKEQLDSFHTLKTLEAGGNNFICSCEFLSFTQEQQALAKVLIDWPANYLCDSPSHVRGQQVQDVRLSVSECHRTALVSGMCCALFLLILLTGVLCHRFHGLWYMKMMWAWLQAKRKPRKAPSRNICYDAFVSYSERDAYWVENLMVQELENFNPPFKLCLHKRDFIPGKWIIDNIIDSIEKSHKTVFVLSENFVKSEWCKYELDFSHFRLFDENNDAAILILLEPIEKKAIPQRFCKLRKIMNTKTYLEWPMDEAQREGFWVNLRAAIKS

B1: Z13Mad5Anaxa (other)
chain: MHHHHHHKRYKNRVASRKSRAKFKQLLQHYREVAAAKSSENDRLRLLLKESLKISQAVHAAHAEINEAGREVVGVGALKVPRNQDWLGVPRFAKFASFEAQGALANIAVDKANLDVEQLESIINFEKLTEWTGSSTVHEILCKLSLEGDHSTPPSAYGSVKPYTNFDAE
notes: Recombinant fusion protein; 18973 Da; also called fusion protein of cell-penetrating peptide Z13, MAD5 cargo and TLR peptide agonist Anaxa (C-terminal)
- binding result (human TLR2): binds
- binding result (human TLR4): binds

B2: AnaxaZ13Mad5 (other)
chain: MHHHHHHSTVHEILCKLSLEGDHSTPPSAYGSVKPYTNFDAEKRYKNRVASRKSRAKFKQLLQHYREVAAAKSSENDRLRLLLKESLKISQAVHAAHAEINEAGREVVGVGALKVPRNQDWLGVPRFAKFASFEAQGALANIAVDKANLDVEQLESIINFEKLTEWTGS
notes: Recombinant fusion protein; 18973 Da; also called AnaxZ13Mad5
- binding result (human TLR2): binds

B3: EDAZ13Mad5 (other)
chain: MHHHHHHNIDRPKGLAFTDVDVDSIKIAWESPQGQVSRYRVTYSSPEDGIRELFPAPDGEDDTAELQGLRPGSEYTVSVVALHDDMESQPLIGIQSTKRYKNRVASRKSRAKFKQLLQHYREVAAAKSSENDRLRLLLKESLKISQAVHAAHAEINEAGREVVGVGALKVPRNQDWLGVPRFAKFASFEAQGALANIAVDKANLDVEQLESIINFEKLTEWTGS
notes: Recombinant fusion protein; 25057 Da; also called fusion protein of TLR4 peptide agonist EDA, cell-penetrating peptide Z13 and MAD5 cargo
- binding result (human TLR4): binds
